Results from the supplement of paper PMC10724198.
± gives the standard deviation of the averaged measurements.

system: Saccharomyces cerevisiae; assay: protein stability index of tFT-peptide fusion (C-terminal peptide) (PSI (0-1 scale)); higher = more stable (slower turnover); conditions: genetic background: wild type; temperature: 30 C
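Also: PSI is a weighted mean of sequencing reads over stability bins, variants kept only with over 10 reads, mCherry proximal and sfGFP distal, peptide attached via GGGS linker.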

Sequence | protein stability index
CVYGWVGRGWGA | 0.707 ± 0.079
LRLAVVSHSCGA | 0.639 ± 0.023
SHSPPSPPLPPP | 0.6773 ± 0.0042
LHCLGFWRVMYG | 0.6538 ± 0.0011
IRWKEIIDKWSY | 0.844 ± 0.038
PFPLPPPPFHPP | 0.691 ± 0.014
RATTDGGRGGRR | 0.696 ± 0.037
PLPALRPGAAPH | 0.7457 ± 0.0023
SSPLRVLGPESG | 0.689 ± 0.062
CRFYKYIRNMFR | 0.674 ± 0.074
GGGRGGARVGQL | 0.661 ± 0.013
SPGRPSSPPRPR | 0.744 ± 0.029
PHPLPSHPLPPP | 0.738 ± 0.023
VYAETMTKELRG | 0.69 ± 0.053
PPSPSPPPPPPT | 0.648 ± 0.04
FLSCLLERSWSL | 0.79 ± 0.044
LRGLIDVKSSLK | 0.758 ± 0.052
PSTLKQVMNLGA | 0.666 ± 0.18
GGVLGRRLLGGR | 0.64 ± 0.051
NPAVASPPPSSS | 0.737 ± 0.036
GRTPGNALKRND | 0.632 ± 0.03
RATSCAAPLLAR | 0.6009 ± 0.0047
PSPVPSLPPFLP | 0.745 ± 0.13
SAVSVATVVWSV | 0.705 ± 0.092
VWAVALSRQGPC | 0.689 ± 0.016
VGYWGMGFWFSG | 0.65 ± 0.03

Sequence | protein stability index
YFPGILFGAIFS | 0.668 ± 0.07
AAGWRPEGSGAF | 0.725 ± 0.033
PPLPPTLSSIVI | 0.599 ± 0.021
PRPPPSFPPDPS | 0.669 ± 0.049
PPDPPWPRSPPA | 0.588 ± 0.019
KHNRISEKHQKS | 0.643 ± 0.0095
PYSCPPGCRSVL | 0.6894 ± 0.0043
VVRCVLSQKCLV | 0.578 ± 0.015
PTRQTIWPPPAS | 0.748 ± 0.026
PPRPLPPSLPPP | 0.695 ± 0.037
SPTRSPPRPLPP | 0.649 ± 0.031
LRVYIRAAWVGL | 0.604 ± 0.016
DSPRTFWGPTQK | 0.699 ± 0.055
YLEQALLDVQTD | 0.756 ± 0.021
LPHSNWAGRVIE | 0.703 ± 0.025
APPALPPLSPFP | 0.705 ± 0.091
NRHQVSKTEIKL | 0.72 ± 0.016
VLGCWEAPFVRC | 0.62 ± 0.1
VMLWAGLFGSSV | 0.634 ± 0.018
SPPHSPPWPLSL | 0.691 ± 0.052
FLSLFCFFLPFF | 0.646 ± 0.02
LLLRGSGRSLAL | 0.709 ± 0.0082
GGRGGVWWVGRV | 0.675 ± 0.037
GSYDLMGFQFFI | 0.632 ± 0.029
FSTVIDFLAYLF | 0.636 ± 0.036
RTGTGTRTRPSR | 0.701 ± 0.066

Sequence | protein stability index
IKRKQRKRKSEK | 0.86 ± 0.14
YACRLAPGDLLA | 0.643 ± 0.0088
CLSPAFGCWWIV | 0.582 ± 0.11
SLPRPYPQKVTG | 0.621 ± 0.015
KRDFILFSASVD | 0.627 ± 0.051
VSSPLLFCSIFL | 0.675 ± 0.026
AALLSSPPLSPP | 0.662 ± 0.062
HIPPPPRPSAPP | 0.69 ± 0.04
GSLPPCPSHAPF | 0.698 ± 0.061
IWLHFKGSRSLP | 0.703 ± 0.16
NKKVRSKRKEMN | 0.637 ± 0.093
MGYPGFGRVPYV | 0.723 ± 0.053
EERAGTRGGRGR | 0.743 ± 0.13
KESLKDRTKINI | 0.692 ± 0.033
TSTQVMYVSCCL | 0.63 ± 0.014
VRWLLTSHARLT | 0.484 ± 0.12
HGSDTSIALRSG | 0.622 ± 0.038
VIILRWCRVDGF | 0.565 ± 0.031
GLYSGGLGAGVG | 0.658 ± 0.092
SPLPPPSPRPSL | 0.681 ± 0.039
TSFNQCRVFCRT | 0.614 ± 0.049
PGQSSPLPPDVS | 0.653 ± 0.078
APSPRPSRPPPL | 0.671 ± 0.034
CCCVLMTFTSSP | 0.561 ± 0.044
SNPSTNPCWKKK | 0.643 ± 0.041
GGSETHLTVTIY | 0.636 ± 0.0077

Sequence | protein stability index
IIVWVGAGLWGV | 0.594 ± 0.011
LRCRLCRFFPFL | 0.714 ± 0.044
LKRRREGEPGKQ | 0.625 ± 0.053
VLMVIPRAQVLL | 0.697 ± 0.085
GQHAAVNASVVR | 0.665 ± 0.013
PLRLPPAPPFPL | 0.824 ± 0.075
SLSLRPPPYPPP | 0.578 ± 0.0096
LIFACIYFSGVV | 0.644 ± 0.047
TKILRGQKRRAA | 0.637 ± 0.1
SRWWSRPRYRDG | 0.752 ± 0.017
NNMNRKKGKKKT | 0.7027 ± 0.0018
TTQGICWMAKGV | 0.695 ± 0.0088
SPPCPPPLAPPP | 0.758 ± 0.044
ARPGSVIAQLRV | 0.598 ± 0.031
AAPSRASDLARP | 0.661 ± 0.087
GGVGGPVLGAGG | 0.638 ± 0.051
RTPQLSVFDLGI | 0.7957 ± 0.0039
KKKKEIKKKKKT | 0.697 ± 0.06
RRGPLDSVLVAI | 0.713 ± 0.05
QEALLAPEYSVD | 0.7 ± 0.0096
TPVSTNHFYTLE | 0.613 ± 0.0094
SGGTDMLALRVR | 0.632 ± 0.062
GGFALIWQRVCP | 0.705 ± 0.011
IRRTSENEEETW | 0.673 ± 0.043
GREGTEIGKWRE | 0.74 ± 0.12
LPRSASLHVRPH | 0.707 ± 0.023

Sequence | protein stability index
KENIRPSESYKC | 0.668 ± 0.05
PFSSFLSLFPIL | 0.7 ± 0.0084
CQPTTTCTGGNV | 0.693 ± 0.035
TPNKKTGNQYPG | 0.685 ± 0.038
RKKIRKNITQQP | 0.692 ± 0.052
PPAPPHLPPLPR | 0.71574 ± 0.00046
VGVFDGAVFSWC | 0.726 ± 0.12
PLPRSPRPSAPP | 0.622 ± 0.034
PLLTPPPVLHHP | 0.741 ± 0.035
GAYSSFNGNSGD | 0.681 ± 0.064
DPVLPSVRVSLG | 0.715 ± 0.068
LGGWVGGRGVRG | 0.717 ± 0.096
CGFALFLCDGFV | 0.744 ± 0.083
PPPPGKTDRPSH | 0.695 ± 0.055
SPRPDSVLLRSP | 0.723 ± 0.025
HLPPSSPPLAVI | 0.68 ± 0.009
GGPHYVYPFCSF | 0.699 ± 0.019
IKKKKKKENKRR | 0.741 ± 0.014
ILGQLHKHFKTS | 0.546 ± 0.046
EPGQWRAASYGF | 0.71 ± 0.024
HLPPLHRLSPPI | 0.668 ± 0.04
PSLSPSPRITSS | 0.65 ± 0.077
PLGVPPPAPSSP | 0.6943 ± 0.0024
LSTCIMFRSCGG | 0.693 ± 0.041
VMTRVIYRGVGR | 0.6643 ± 0.00051
SGLAARFGLPIR | 0.674 ± 0.016

Sequence | protein stability index
ALPLPLLACSPL | 0.6268 ± 0.0034
PAVFPSLENVAL | 0.732 ± 0.046
YPTSLLHLHSPP | 0.708 ± 0.044
RGYVNVWTRLGN | 0.717 ± 0.043
KEERGINNKKGK | 0.691 ± 0.071
DRYGVYPIYGKF | 0.6855 ± 0.0054
NTLTSCRPVASK | 0.704 ± 0.037
CEKGLFLRSAYV | 0.65 ± 0.034
PILPTSAPSDPR | 0.724 ± 0.12
PPPPSLPPPLPL | 0.698 ± 0.022
HDRRKAFHVVWL | 0.663 ± 0.039
EYCIYYTQFGSF | 0.65 ± 0.1
VPPPLASPPVTP | 0.698 ± 0.055
LGVRSGGSWRAG | 0.792 ± 0.064
LVILLLQLLSGT | 0.51758 ± 0.00046
GGGKINSLHGAG | 0.681 ± 0.041
GGRLGRGAKGRV | 0.669 ± 0.082
NDGSDYRFLSLK | 0.706 ± 0.011
AGGGCALGDGWS | 0.649 ± 0.021
SFPRYRWRAATE | 0.6704 ± 0.0021
LQTLPAPHTPFP | 0.643 ± 0.039
PLSPPAPSPAPR | 0.644 ± 0.0071
LTCYFSASNVLW | 0.615 ± 0.046
MVCSFVSLLGRF | 0.69 ± 0.01
CYCPPPGMPVPF | 0.736 ± 0.095
ALRVSGAYREHS | 0.735 ± 0.032

Sequence | protein stability index
DVYDLGLPINMS | 0.698 ± 0.045
ASIPAPRLTPRA | 0.681 ± 0.048
MAICRVLSQVFL | 0.686 ± 0.12
IFWGFSFRGWAC | 0.656 ± 0.0067
LSLSPLPAPCPP | 0.713 ± 0.071
PPPHSPLPAPPR | 0.76 ± 0.086
ALEFNGLVAGRL | 0.727 ± 0.081
CWGEGGRTVING | 0.639 ± 0.03
PPPPSPPSPPPP | 0.677 ± 0.0094
HASPPPDASPPL | 0.687 ± 0.022
PLLPYPFPPPLS | 0.784 ± 0.04
LPGLSRATTVYP | 0.679 ± 0.065
GPLRPTPAPNRT | 0.644 ± 0.0079
TFPHSWHISSVP | 0.677 ± 0.024
SPPTPPPSPPFL | 0.523 ± 0.012
SLLPCAPHPRPV | 0.662 ± 0.074
PRPTPPHSPLLP | 0.586 ± 0.02
PTSLPLPPPSLS | 0.7333 ± 0.0056
IPPNPPPPNTIA | 0.557 ± 0.0097
LSSGCSVKLRAQ | 0.67 ± 0.015
RLPQSRLRTPPP | 0.705 ± 0.069
GIRAVRYFNSCC | 0.598 ± 0.011
SLFNADPYGFNL | 0.711 ± 0.03
EKKRKKIYGNLK | 0.683 ± 0.13
GLGLAFRGSFVL | 0.69 ± 0.056
PAPPAALPPPHP | 0.637 ± 0.077

Sequence | protein stability index
PPRPLPPPRPSS | 0.691 ± 0.037
IKKDSRQRKRDE | 0.648 ± 0.0084
EGTKEKGEKRRR | 0.666 ± 0.065
GKGKETKELIGK | 0.711 ± 0.023
KDCHPVSRYVRC | 0.707 ± 0.01
ASNVHSSTARFI | 0.687 ± 0.082
WGISRSLRPGEV | 0.739 ± 0.12
GGGGEGPGKSPR | 0.669 ± 0.14
SVRWFLIGCGGA | 0.579 ± 0.048
LRGKLGNCLGLL | 0.733 ± 0.028
ATQTGFGGGGPM | 0.689 ± 0.013
ASPSKVSGLNID | 0.785 ± 0.097
YTGRFDSSDIWY | 0.818 ± 0.057
SKTEKELSNREF | 0.659 ± 0.025
HLPPPPSPPPPP | 0.68 ± 0.051
WPRPSLPPLYAP | 0.685 ± 0.051
DDGRDTLCGRGS | 0.68 ± 0.042
LRPPSCCPLEIQ | 0.705 ± 0.076
PPLTRRSTLMSY | 0.591 ± 0.042
WGDGRGRVWEIS | 0.674 ± 0.048
